The text below walks through data of PMC12136795, “RNA modifications and Prp24 coordinate Lsm2–8 binding dynamics during S. cerevisiae U6 snRNP assembly”.

One may read the Kd as the free concentration of one partner at which half of the binding sites on the other are occupied at equilibrium, for simple one-to-one binding.

In data set [1] the target is T1, Lsm2-8 heteroheptamer WT (Saccharomyces cerevisiae, UniProt P38203;P57743;P40070;P40089;Q06406;P53905;P47093 …).
T1 sequence 1: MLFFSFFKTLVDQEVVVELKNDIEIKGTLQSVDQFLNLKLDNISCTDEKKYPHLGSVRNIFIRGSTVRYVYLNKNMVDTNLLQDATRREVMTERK
T1 sequence 2: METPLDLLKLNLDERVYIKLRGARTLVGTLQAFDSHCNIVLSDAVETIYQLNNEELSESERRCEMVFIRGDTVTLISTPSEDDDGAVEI
T1 sequence 3: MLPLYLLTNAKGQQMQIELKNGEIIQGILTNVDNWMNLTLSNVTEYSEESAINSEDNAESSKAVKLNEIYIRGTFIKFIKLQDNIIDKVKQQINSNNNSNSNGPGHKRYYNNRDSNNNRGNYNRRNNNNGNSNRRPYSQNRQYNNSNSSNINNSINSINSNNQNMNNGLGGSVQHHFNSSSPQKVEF
T1 sequence 4: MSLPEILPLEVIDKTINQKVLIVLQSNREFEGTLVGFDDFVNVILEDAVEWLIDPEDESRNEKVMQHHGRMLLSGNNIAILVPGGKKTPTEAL
T1 sequence 5: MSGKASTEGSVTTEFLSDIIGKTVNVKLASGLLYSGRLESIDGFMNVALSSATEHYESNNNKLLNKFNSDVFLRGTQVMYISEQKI
T1 sequence 6: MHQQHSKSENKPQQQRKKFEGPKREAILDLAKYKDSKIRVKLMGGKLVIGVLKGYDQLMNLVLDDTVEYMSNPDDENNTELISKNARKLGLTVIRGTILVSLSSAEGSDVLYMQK
T1 sequence 7: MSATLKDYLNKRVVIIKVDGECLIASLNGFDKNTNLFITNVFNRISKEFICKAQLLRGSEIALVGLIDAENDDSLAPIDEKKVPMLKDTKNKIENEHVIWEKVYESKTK
Description: fluorescence polarization; Hill 1.11; FP: 2x RNA stock 2 nM mixed 1:1 with protein, 100 mM NaCl, 20 mM Bis-Tris pH 7.0, 10 mM HCl, 1 mM TCEP, 5% glycerol, yeast tRNA, BSA. EMSA: 100 mM KCl, 20% sucrose, 20 mM Hepes pH 7, 1 mM EDTA, 1 mM TCEP, 0.01% Triton X-100 (RNA buffer), yeast tRNA, heparin, BSA, 30 min room temperature, 6% native PAGE at 4 C. CoSMoS buffer not in material. To be noted: protein: recombinant; tags: His-tag removed with TEV; copies: 1;1;1;1;1;1;1; label: fluorophore.

The target in data set [2] is T2, Lsm2-8fSNAP (unlabeled) (Saccharomyces cerevisiae, UniProt P38203;P57743;P40070;P40089;Q06406;P53905;P47093 …).
T2 sequence 1: T1 sequence 1
T2 sequence 2: T1 sequence 2
T2 sequence 3: T1 sequence 3
T2 sequence 4: T1 sequence 4
T2 sequence 5: T1 sequence 5
T2 sequence 6: T1 sequence 6
T2 sequence 7: T1 sequence 7
Description: fluorescence polarization; Hill 0.88; FP: 2x RNA stock 2 nM mixed 1:1 with protein, 100 mM NaCl, 20 mM Bis-Tris pH 7.0, 10 mM HCl, 1 mM TCEP, 5% glycerol, yeast tRNA, BSA. EMSA: 100 mM KCl, 20% sucrose, 20 mM Hepes pH 7, 1 mM EDTA, 1 mM TCEP, 0.01% Triton X-100 (RNA buffer), yeast tRNA, heparin, BSA, 30 min room temperature, 6% native PAGE at 4 C. CoSMoS buffer not in material. To be noted: protein: recombinant; tags: fast SNAP tag at C terminus of Lsm8 via flexible linker; His-tag removed with TEV; copies: 1;1;1;1;1;1;1; label: fluorophore. (In general: Fluorescence polarisation rises when a labelled molecule tumbles more slowly, as on binding a larger partner.)

Data set [3] deals with T2, Lsm2-8fSNAP (unlabeled). Description: fluorescence polarization; Hill 1.12; FP: 2x RNA stock 2 nM mixed 1:1 with protein, 100 mM NaCl, 20 mM Bis-Tris pH 7.0, 10 mM HCl, 1 mM TCEP, 5% glycerol, yeast tRNA, BSA. EMSA: 100 mM KCl, 20% sucrose, 20 mM Hepes pH 7, 1 mM EDTA, 1 mM TCEP, 0.01% Triton X-100 (RNA buffer), yeast tRNA, heparin, BSA, 30 min room temperature, 6% native PAGE at 4 C. CoSMoS buffer not in material. The note with it: protein: recombinant; tags: fast SNAP tag at C terminus of Lsm8 via flexible linker; His-tag removed with TEV; copies: 1;1;1;1;1;1;1; label: fluorophore.

The target in data set [4] is T1, Lsm2-8 heteroheptamer WT. Put plainly: fluorescence polarization; Hill 1.18; FP: 2x RNA stock 2 nM mixed 1:1 with protein, 100 mM NaCl, 20 mM Bis-Tris pH 7.0, 10 mM HCl, 1 mM TCEP, 5% glycerol, yeast tRNA, BSA. EMSA: 100 mM KCl, 20% sucrose, 20 mM Hepes pH 7, 1 mM EDTA, 1 mM TCEP, 0.01% Triton X-100 (RNA buffer), yeast tRNA, heparin, BSA, 30 min room temperature, 6% native PAGE at 4 C. CoSMoS buffer not in material. To be noted: protein: recombinant; tags: His-tag removed with TEV; copies: 1;1;1;1;1;1;1; label: fluorophore.

The target of data set [5] is T2, Lsm2-8fSNAP (unlabeled). Put plainly: fluorescence polarization; Hill 1.35; FP: 2x RNA stock 2 nM mixed 1:1 with protein, 100 mM NaCl, 20 mM Bis-Tris pH 7.0, 10 mM HCl, 1 mM TCEP, 5% glycerol, yeast tRNA, BSA. EMSA: 100 mM KCl, 20% sucrose, 20 mM Hepes pH 7, 1 mM EDTA, 1 mM TCEP, 0.01% Triton X-100 (RNA buffer), yeast tRNA, heparin, BSA, 30 min room temperature, 6% native PAGE at 4 C. CoSMoS buffer not in material. The note with it: protein: recombinant; tags: fast SNAP tag at C terminus of Lsm8 via flexible linker; His-tag removed with TEV; copies: 1;1;1;1;1;1;1; label: fluorophore.

For data set [6], the target named is T1, Lsm2-8 heteroheptamer WT. Put plainly: fluorescence polarization; Hill 1.26; FP: 2x RNA stock 2 nM mixed 1:1 with protein, 100 mM NaCl, 20 mM Bis-Tris pH 7.0, 10 mM HCl, 1 mM TCEP, 5% glycerol, yeast tRNA, BSA. EMSA: 100 mM KCl, 20% sucrose, 20 mM Hepes pH 7, 1 mM EDTA, 1 mM TCEP, 0.01% Triton X-100 (RNA buffer), yeast tRNA, heparin, BSA, 30 min room temperature, 6% native PAGE at 4 C. CoSMoS buffer not in material. The note with it: protein: recombinant; tags: His-tag removed with TEV; copies: 1;1;1;1;1;1;1; label: fluorophore.

For the molecule AGAGAUUUAUUUCGUUUU (ssRNA, 3' phosphate) [U6 95-112-P], the dissociation constant Kd with Lsm2-8 heteroheptamer WT [1] stood at 10.3 ± 4.1 nM; with Lsm2-8fSNAP (unlabeled) [2], 12.8 ± 3.87 nM.

Turning to AGAGAUUUAUUUCGUUUUU (ssRNA, 3' cis-diol (2',3'-OH)) [U6 95-113-OH], the dissociation constant Kd in the data set with Lsm2-8fSNAP (unlabeled) [3] was determined as 6.7 ± 1.1 nM; with Lsm2-8 heteroheptamer WT [4], 6.75 ± 1.15 nM.

On to AGAGAUUUAUUUCGUUUU (ssRNA, 3' cis-diol (2',3'-OH)) [U6 95-112-OH], for which the Kd with Lsm2-8fSNAP (unlabeled) [5] came out at 114 ± 16.8 nM; with Lsm2-8 heteroheptamer WT [6] it was 84.6 ± 16.8 nM.
